The values that follow are results of earlier work, collected in patent US9856460B2, “Nucleic acids encoding synthetic scaffolds and host cells genetically modified with the nucleic acids” (The Regents of the University of California, priority 2008, dated 2018).

For orientation: Kd means the concentration at which binding is half-saturated.

For this data set, the target named is T1, WASP GBD (Rattus norvegicus, UniProt O08816).
T1 construct: 196-274
The note with it: partner WASP GBD; measured in trans.

T1 sequence (O08816 196-274): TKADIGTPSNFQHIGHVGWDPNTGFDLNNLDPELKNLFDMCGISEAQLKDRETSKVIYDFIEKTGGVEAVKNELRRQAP

On to “GBD interaction ligand LVGALMHVMQKRSRAIHSSDEGEDQAGDEDED, SEQ ID NO: 30, partner WASP GBD [GBD lig.]”, for which the dissociation constant Kd was 1000 nM.
